Molecular target: calmodulin (calcium-loaded, holo-CaM) (UniProt P0DP23)
Experiment: other fluorescence titration + ITC

Binder	fold decrease of affinity for CaM against P454 [fold]	Kd [µM]
ASAHWGQRALQGAQAVAAAQRLVSAAALMTQ [P454 H477S-I479A peptide]	~20	
ASAHWGQEALQGAQAVAAAQELVHAIALMTQ [P454_(R12E) peptide (P454 with R461 and R474 substituted by glutamate)]		22.7
ASAHAGQRAAQGAQAVAAAQRLVHAIALMTQ [P454 W458A-L463A peptide]	4	
ASAHWGQRALQGAQAVAAAQRAVSAAALMTQ [P454 L475A-H477S-I479A peptide]	~20	
